Laboratory results from patent US20090130093A1 (AstraZeneca / MedImmune, published 2009).
Positions count from the first letter of the chain named.

B1: Antibody 6 (germlined or non-germlined not stated at these places) (antibody, V domains shown)
VH: QVQLVQSGAEVKKPGASVKVSCKVSGYTLTELSIHWVRQAPGKGLEWMGGFDPEENEIVYAQRFQGRVTMTEDTSTDTAYMELSSLRSEDTAVYYCAIVGSFSPLTLGLWGQGTMVTVSS
VL: QSVLTQPPSVSGAPGQRVTISCTGSGSNIGAPYDVSWYQQLPGTAPKLLIYHNNKRPSGVPDRFSGSKSGTSASLAITGLQAEDEADYYCATVEAGLSGSVFGGGTKLTVL
B2: Antibody 13 IgG4 (antibody, V domains shown)
VH: QVQLVQSGAEVKKPGASVKVSCKISGHSLSELSIHWVRQTPTKGFEWMGGFDPEENEIVYAQRFQGRVTMTEDTSIDTAYLTLSSLRSDDTAVYYCSIVGSFSGWAFDYWGKGTMVTVSS
VL: QAVLTQPSSVSGAPGQRVTISCTGSGSNIGAPYDVSWYQQLPGTAPKLLIYHNNKRPSGVPDRFSASKSGTSASLAITGLQADDEADYYCQSYDSRTGIIVFGGGTKVTVL
B3: Antibody 18 IgG4 (antibody, V domains shown)
VH: B2 VH with S33F, I98T, W105P, F107L, D108H, Y109L
VL: B2 VL with R96Q, T97W, G98N, I99Q, I100P, V101L
B4: Antibody 6 IgG4, non-germlined (antibody, V domains shown)
VH: B2 VH with G104P, W105L, A106T, F107L, D108G, Y109L
VL: B1 VL with S2A, P8S, G66A, E83D
B5: 28G5 (Antibody 3) IgG4, parent antibody (antibody, V domains shown)
VH: B2 VH
VL: B2 VL with R96S, T97L, G98S, I99G, I100S
B6: Antibody 2 IgG4 (antibody, V domains shown)
VH: B2 VH with W105P, F107L, D108R, Y109P
VL: B2 VL with R96S, T97L, G98S, I99G, I100S

Tests used:
Assay in all cases: cell-based or functional assay
[1] = molecular target: T1, human GM-CSFRα (mature receptor alpha chain, as on human cells) (human, UniProt P15509 23-400)
T1 sequence: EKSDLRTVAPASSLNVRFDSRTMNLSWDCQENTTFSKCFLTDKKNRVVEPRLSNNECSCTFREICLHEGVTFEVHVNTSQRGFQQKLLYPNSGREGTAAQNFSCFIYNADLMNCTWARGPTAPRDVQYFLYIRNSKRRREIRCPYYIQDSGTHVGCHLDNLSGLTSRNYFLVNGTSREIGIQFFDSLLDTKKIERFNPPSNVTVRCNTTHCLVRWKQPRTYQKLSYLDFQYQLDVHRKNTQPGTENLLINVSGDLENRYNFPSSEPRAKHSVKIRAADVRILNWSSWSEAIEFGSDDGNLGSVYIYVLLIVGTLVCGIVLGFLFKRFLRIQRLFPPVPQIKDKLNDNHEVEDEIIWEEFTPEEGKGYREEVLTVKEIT

[2] = molecular target: T1, human GM-CSFRα (mature receptor alpha …); remark: listed apart in the source
[3] = molecular target: T2, cynomolgus GM-CSFRα on cynomolgus granulocytes (cynomolgus, UniProt A0A2K5UC70 23-393)
T2 sequence: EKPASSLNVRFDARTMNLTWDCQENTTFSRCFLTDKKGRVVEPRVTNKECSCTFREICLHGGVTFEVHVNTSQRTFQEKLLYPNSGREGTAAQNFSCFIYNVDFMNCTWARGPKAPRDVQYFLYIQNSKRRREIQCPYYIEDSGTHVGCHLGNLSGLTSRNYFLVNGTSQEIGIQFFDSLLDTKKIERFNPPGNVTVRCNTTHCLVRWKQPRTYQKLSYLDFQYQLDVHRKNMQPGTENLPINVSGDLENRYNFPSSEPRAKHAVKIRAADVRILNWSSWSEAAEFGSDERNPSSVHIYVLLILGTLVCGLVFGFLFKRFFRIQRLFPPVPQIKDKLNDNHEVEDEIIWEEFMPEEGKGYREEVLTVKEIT

Binder	IC50, GM-CSF induced proliferation of TF-1 cells [2]	IC50, cynomolgus granulocyte shape change assay [3]	further results
B1			IC50, colony formation assay with 10 ng/ml human GM-CSF [1]: ~0.08 µg/mL
B2	1.11 nM		
B3	0.0133 nM		
B4		0.00173 nM	
B5		~5 nM	
B6		0.0032 nM	
